In IntAct's records for PubMed 30190310:

B1: Kelch-like protein 12 (Homo sapiens), Q53G59 (parent)
chain: MGGIMAPKDIMTNTHAKSILNSMNSLRKSNTLCDVTLRVEQKDFPAHRIVLAACSDYFCAMFTSELSEKGKPYVDIQGLTASTMEILLDFVYTETVHVTVENVQELLPAACLLQLKGVKQACCEFLESQLDPSNCLGIRDFAETHNCVDLMQAAEVFSQKHFPEVVQHEEFILLSQGEVEKLIKCDEIQVDSEEPVFEAVINWVKHAKKEREESLPNLLQYVRMPLLTPRYITDVIDAEPFIRCSLQCRDLVDEAKKFHLRPELRSQMQGPRTRARLGANEVLLVVGGFGSQQSPIDVVEKYDPKTQEWSFLPSITRKRRYVASVSLHDRIYVIGGYDGRSRLSSVECLDYTADEDGVWYSVAPMNVRRGLAGATTLGDMIYVSGGFDGSRRHTSMERYDPNIDQWSMLGDMQTAREGAGLVVASGVIYCLGGYDGLNILNSVEKYDPHTGHWTNVTPMATKRSGAGVALLNDHIYVVGGFDGTAHLSSVEAYNIRTDSWTTVTSMTTPRCYVGATVLRGRLYAIAGYDGNSLLSSIECYDPIIDSWEVVTSMGTQRCDAGVCVLREK

Variants of: B1
Conditions: with fxl17_human FBXL17, Q9UF56
Sequence of fxl17_human FBXL17, Q9UF56 (Q9UF56 whole entry): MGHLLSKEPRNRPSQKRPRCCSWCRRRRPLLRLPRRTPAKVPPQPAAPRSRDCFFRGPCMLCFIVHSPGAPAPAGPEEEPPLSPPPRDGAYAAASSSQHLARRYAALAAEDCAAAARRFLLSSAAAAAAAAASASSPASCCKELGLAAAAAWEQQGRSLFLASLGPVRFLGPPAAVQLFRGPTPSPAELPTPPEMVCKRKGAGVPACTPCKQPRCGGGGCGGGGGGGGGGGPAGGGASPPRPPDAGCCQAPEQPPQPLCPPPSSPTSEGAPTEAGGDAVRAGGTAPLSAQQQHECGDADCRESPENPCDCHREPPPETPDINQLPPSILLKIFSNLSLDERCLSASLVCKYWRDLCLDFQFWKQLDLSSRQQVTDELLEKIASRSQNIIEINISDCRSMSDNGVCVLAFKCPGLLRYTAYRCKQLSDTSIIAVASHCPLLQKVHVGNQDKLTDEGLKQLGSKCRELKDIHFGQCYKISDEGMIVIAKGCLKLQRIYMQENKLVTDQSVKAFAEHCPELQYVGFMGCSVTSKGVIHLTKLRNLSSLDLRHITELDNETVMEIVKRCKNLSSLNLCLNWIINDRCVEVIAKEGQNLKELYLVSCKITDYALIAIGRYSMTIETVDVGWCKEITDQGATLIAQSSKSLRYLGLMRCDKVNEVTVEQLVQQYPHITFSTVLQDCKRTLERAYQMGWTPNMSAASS

Variant	effect of a mutation on the interaction
MGGIMAPKDIMTNTHAKSILNSMNSLAKSNTLCDVTLRVEQKDFPAHRIVLAACSDYFCKMFTSELSEKGKPYVDIQGLTASTMEILLDFVYTETVHVTVENVQELLPAACLLQLKGVKQACCEFLESQLDPSNCLGIRDFAETHNCVDLMQAAEVFSQKHFPEVVQHEEFILLSQGEVEKLIKCDEIQVDSEEPVFEAVINWVKHAKKEREESLPNLLQYVRMPLLTPRYITDVIDAEPFIRCSLQCRDLVDEAKKFHLRPELRSQMQGPRTRARLGANEVLLVVGGFGSQQSPIDVVEKYDPKTQEWSFLPSITRKRRYVASVSLHDRIYVIGGYDGRSRLSSVECLDYTADEDGVWYSVAPMNVRRGLAGATTLGDMIYVSGGFDGSRRHTSMERYDPNIDQWSMLGDMQTAREGAGLVVASGVIYCLGGYDGLNILNSVEKYDPHTGHWTNVTPMATKRSGAGVALLNDHIYVVGGFDGTAHLSSVEAYNIRTDSWTTVTSMTTPRCYVGATVLRGRLYAIAGYDGNSLLSSIECYDPIIDSWEVVTSMGTQRCDAGVCVLREK [R27A;A60K]	with no effect
MGGIMAPKDIMTNTHAKSILNSMNSLAKSNTLCDVTLRVEQKDFPAHRIVLAACSDYFCAMFTSELSEKGKPYVDIQGLTASTMEILLDFVYTETVHVTVENVQELLPAACLLQLKGVKQACCEFLESQLDPSNCLGIRDFAETHNCVDLMQAAEVFSQKHFPEVVQHEEFILLSQGEVEKLIKCDEIQVDSEEPVFEAVINWVKHAKKEREESLPNLLQYVRMPLLTPRYITDVIDAEPFIRCSLQCRDLVDEAKKFHLRPELRSQMQGPRTRARLGANEVLLVVGGFGSQQSPIDVVEKYDPKTQEWSFLPSITRKRRYVASVSLHDRIYVIGGYDGRSRLSSVECLDYTADEDGVWYSVAPMNVRRGLAGATTLGDMIYVSGGFDGSRRHTSMERYDPNIDQWSMLGDMQTAREGAGLVVASGVIYCLGGYDGLNILNSVEKYDPHTGHWTNVTPMATKRSGAGVALLNDHIYVVGGFDGTAHLSSVEAYNIRTDSWTTVTSMTTPRCYVGATVLRGRLYAIAGYDGNSLLSSIECYDPIIDSWEVVTSMGTQRCDAGVCVLREK [R27A]	causing an interaction
MGGIMAPKDIMTNTHAKSILNSMNSLDKSNTLCDVTLRVEQKDFPAHRIVLAACSDYFCAMFTSELSEKGKPYVDIQGLTASTMEILLDFVYTETVHVTVENVQELLPAACLLQLKGVKQACCEFLESQLDPSNCLGIRDFAETHNCVDLMQAAEVFSQKHFPEVVQHEEFILLSQGEVEKLIKCDEIQVDSEEPVFEAVINWVKHAKKEREESLPNLLQYVRMPLLTPRYITDVIDAEPFIRCSLQCRDLVDEAKKFHLRPELRSQMQGPRTRARLGANEVLLVVGGFGSQQSPIDVVEKYDPKTQEWSFLPSITRKRRYVASVSLHDRIYVIGGYDGRSRLSSVECLDYTADEDGVWYSVAPMNVRRGLAGATTLGDMIYVSGGFDGSRRHTSMERYDPNIDQWSMLGDMQTAREGAGLVVASGVIYCLGGYDGLNILNSVEKYDPHTGHWTNVTPMATKRSGAGVALLNDHIYVVGGFDGTAHLSSVEAYNIRTDSWTTVTSMTTPRCYVGATVLRGRLYAIAGYDGNSLLSSIECYDPIIDSWEVVTSMGTQRCDAGVCVLREK [R27D]	with no effect
MGGIMAPKDIMTNTHAKSILNSMKSLRKSNTLCDVTLRVEQKDFPAHRIVLAACSDYFCAMFTSELSEKGKPYVDIQGLTASTMEILLDFVYTETVHVTVENVQELLPAACLLQLKGVKQACCEFLESQLDPSNCLGIRDFAETHNCVDLMQAAEVFSQKHFPEVVQHEEFILLSQGEVEKLIKCDEIQVDSEEPVFEAVINWVKHAKKEREESLPNLLQYVRMPLLTPRYITDVIDAEPFIRCSLQCRDLVDEAKKFHLRPELRSQMQGPRTRARLGANEVLLVVGGFGSQQSPIDVVEKYDPKTQEWSFLPSITRKRRYVASVSLHDRIYVIGGYDGRSRLSSVECLDYTADEDGVWYSVAPMNVRRGLAGATTLGDMIYVSGGFDGSRRHTSMERYDPNIDQWSMLGDMQTAREGAGLVVASGVIYCLGGYDGLNILNSVEKYDPHTGHWTNVTPMATKRSGAGVALLNDHIYVVGGFDGTAHLSSVEAYNIRTDSWTTVTSMTTPRCYVGATVLRGRLYAIAGYDGNSLLSSIECYDPIIDSWEVVTSMGTQRCDAGVCVLREK [N24K]	causing an interaction
MGGIMAPKDIMTNTHAKSILNSMKSLRKSNTLCDVTLRVEQKDFPAHRIVLAACSDYFCKMFTSELSEKGKPYVDIQGLTASTMEILLDFVYTETVHVTVENVQELLPAACLLQLKGVKQACCEFLESQLDPSNCLGIRDFAETHNCVDLMQAAEVFSQKHFPEVVQHEEFILLSQGEVEKLIKCDEIQVDSEEPVFEAVINWVKHAKKEREESLPNLLQYVRMPLLTPRYITDVIDAEPFIRCSLQCRDLVDEAKKFHLRPELRSQMQGPRTRARLGANEVLLVVGGFGSQQSPIDVVEKYDPKTQEWSFLPSITRKRRYVASVSLHDRIYVIGGYDGRSRLSSVECLDYTADEDGVWYSVAPMNVRRGLAGATTLGDMIYVSGGFDGSRRHTSMERYDPNIDQWSMLGDMQTAREGAGLVVASGVIYCLGGYDGLNILNSVEKYDPHTGHWTNVTPMATKRSGAGVALLNDHIYVVGGFDGTAHLSSVEAYNIRTDSWTTVTSMTTPRCYVGATVLRGRLYAIAGYDGNSLLSSIECYDPIIDSWEVVTSMGTQRCDAGVCVLREK [N24K;A60K]	with no effect

Next, values leading:

effect of a mutation on the interaction	Variant
causing an interaction	MGGIMAPKDIMTNTHAKSILNSMNSLRKSNTLFDVTLRVEQKDFPAHRIVLAACSDYFCAMFTSELSEKGKPYVDIQGLTASTMEILLDFVYTETVHVTVENVQELLPAACLLQLKGVKQACCEFLESQLDPSNCLGIRDFAETHNCVDLMQAAEVFSQKHFPEVVQHEEFILLSQGEVEKLIKCDEIQVDSEEPVFEAVINWVKHAKKEREESLPNLLQYVRMPLLTPRYITDVIDAEPFIRCSLQCRDLVDEAKKFHLRPELRSQMQGPRTRARLGANEVLLVVGGFGSQQSPIDVVEKYDPKTQEWSFLPSITRKRRYVASVSLHDRIYVIGGYDGRSRLSSVECLDYTADEDGVWYSVAPMNVRRGLAGATTLGDMIYVSGGFDGSRRHTSMERYDPNIDQWSMLGDMQTAREGAGLVVASGVIYCLGGYDGLNILNSVEKYDPHTGHWTNVTPMATKRSGAGVALLNDHIYVVGGFDGTAHLSSVEAYNIRTDSWTTVTSMTTPRCYVGATVLRGRLYAIAGYDGNSLLSSIECYDPIIDSWEVVTSMGTQRCDAGVCVLREK [C33F]
causing an interaction	MGGIMAPKDIMTNTHAKSILNSMNSLRKSNTLCDVTLRVEQKDFPAHRIALAACSDYFCAMFTSELSEKGKPYVDIQGLTASTMEILLDFVYTETVHVTVENVQELLPAACLLQLKGVKQACCEFLESQLDPSNCLGIRDFAETHNCVDLMQAAEVFSQKHFPEVVQHEEFILLSQGEVEKLIKCDEIQVDSEEPVFEAVINWVKHAKKEREESLPNLLQYVRMPLLTPRYITDVIDAEPFIRCSLQCRDLVDEAKKFHLRPELRSQMQGPRTRARLGANEVLLVVGGFGSQQSPIDVVEKYDPKTQEWSFLPSITRKRRYVASVSLHDRIYVIGGYDGRSRLSSVECLDYTADEDGVWYSVAPMNVRRGLAGATTLGDMIYVSGGFDGSRRHTSMERYDPNIDQWSMLGDMQTAREGAGLVVASGVIYCLGGYDGLNILNSVEKYDPHTGHWTNVTPMATKRSGAGVALLNDHIYVVGGFDGTAHLSSVEAYNIRTDSWTTVTSMTTPRCYVGATVLRGRLYAIAGYDGNSLLSSIECYDPIIDSWEVVTSMGTQRCDAGVCVLREK [V50A]
causing an interaction	MGGIMAPKDIMTNTHAKSILNSMNSLRKSNTLCDVTLRVEQKDFPAHRDVLAACSDYFCAMFTSELSEKGKPYVDIQGLTASTMEILLDFVYTETVHVTVENVQELLPAACLLQLKGVKQACCEFLESQLDPSNCLGIRDFAETHNCVDLMQAAEVFSQKHFPEVVQHEEFILLSQGEVEKLIKCDEIQVDSEEPVFEAVINWVKHAKKEREESLPNLLQYVRMPLLTPRYITDVIDAEPFIRCSLQCRDLVDEAKKFHLRPELRSQMQGPRTRARLGANEVLLVVGGFGSQQSPIDVVEKYDPKTQEWSFLPSITRKRRYVASVSLHDRIYVIGGYDGRSRLSSVECLDYTADEDGVWYSVAPMNVRRGLAGATTLGDMIYVSGGFDGSRRHTSMERYDPNIDQWSMLGDMQTAREGAGLVVASGVIYCLGGYDGLNILNSVEKYDPHTGHWTNVTPMATKRSGAGVALLNDHIYVVGGFDGTAHLSSVEAYNIRTDSWTTVTSMTTPRCYVGATVLRGRLYAIAGYDGNSLLSSIECYDPIIDSWEVVTSMGTQRCDAGVCVLREK [I49D]
causing an interaction	MGGIMAPKDIMTNTHAKSILNSMNSLRKSNTLCDVTLRVEQKDFPAHRAVLAACSDYFCAMFTSELSEKGKPYVDIQGLTASTMEILLDFVYTETVHVTVENVQELLPAACLLQLKGVKQACCEFLESQLDPSNCLGIRDFAETHNCVDLMQAAEVFSQKHFPEVVQHEEFILLSQGEVEKLIKCDEIQVDSEEPVFEAVINWVKHAKKEREESLPNLLQYVRMPLLTPRYITDVIDAEPFIRCSLQCRDLVDEAKKFHLRPELRSQMQGPRTRARLGANEVLLVVGGFGSQQSPIDVVEKYDPKTQEWSFLPSITRKRRYVASVSLHDRIYVIGGYDGRSRLSSVECLDYTADEDGVWYSVAPMNVRRGLAGATTLGDMIYVSGGFDGSRRHTSMERYDPNIDQWSMLGDMQTAREGAGLVVASGVIYCLGGYDGLNILNSVEKYDPHTGHWTNVTPMATKRSGAGVALLNDHIYVVGGFDGTAHLSSVEAYNIRTDSWTTVTSMTTPRCYVGATVLRGRLYAIAGYDGNSLLSSIECYDPIIDSWEVVTSMGTQRCDAGVCVLREK [I49A]
with no effect	MGGIMAPKDIMTNTHAKSILNSMNSLRKSNTLFDVTLRVEQKDFPAHRIVLAACSDYFCKMFTSELSEKGKPYVDIQGLTASTMEILLDFVYTETVHVTVENVQELLPAACLLQLKGVKQACCEFLESQLDPSNCLGIRDFAETHNCVDLMQAAEVFSQKHFPEVVQHEEFILLSQGEVEKLIKCDEIQVDSEEPVFEAVINWVKHAKKEREESLPNLLQYVRMPLLTPRYITDVIDAEPFIRCSLQCRDLVDEAKKFHLRPELRSQMQGPRTRARLGANEVLLVVGGFGSQQSPIDVVEKYDPKTQEWSFLPSITRKRRYVASVSLHDRIYVIGGYDGRSRLSSVECLDYTADEDGVWYSVAPMNVRRGLAGATTLGDMIYVSGGFDGSRRHTSMERYDPNIDQWSMLGDMQTAREGAGLVVASGVIYCLGGYDGLNILNSVEKYDPHTGHWTNVTPMATKRSGAGVALLNDHIYVVGGFDGTAHLSSVEAYNIRTDSWTTVTSMTTPRCYVGATVLRGRLYAIAGYDGNSLLSSIECYDPIIDSWEVVTSMGTQRCDAGVCVLREK [C33F;A60K]

Variants of: B1
Conditions: with cul3_human CUL3, Q13618

effect of a mutation on the interaction	Variant
with no effect	MGGIMAPKDIMTNTHAKSILNSMNSLRKSNTLCDVTLRVEQKDFPAHRIALAACSDYFCAMFTSELSEKGKPYVDIQGLTASTMEILLDFVYTETVHVTVENVQELLPAACLLQLKGVKQACCEFLESQLDPSNCLGIRDFAETHNCVDLMQAAEVFSQKHFPEVVQHEEFILLSQGEVEKLIKCDEIQVDSEEPVFEAVINWVKHAKKEREESLPNLLQYVRMPLLTPRYITDVIDAEPFIRCSLQCRDLVDEAKKFHLRPELRSQMQGPRTRARLGANEVLLVVGGFGSQQSPIDVVEKYDPKTQEWSFLPSITRKRRYVASVSLHDRIYVIGGYDGRSRLSSVECLDYTADEDGVWYSVAPMNVRRGLAGATTLGDMIYVSGGFDGSRRHTSMERYDPNIDQWSMLGDMQTAREGAGLVVASGVIYCLGGYDGLNILNSVEKYDPHTGHWTNVTPMATKRSGAGVALLNDHIYVVGGFDGTAHLSSVEAYNIRTDSWTTVTSMTTPRCYVGATVLRGRLYAIAGYDGNSLLSSIECYDPIIDSWEVVTSMGTQRCDAGVCVLREK [V50A]
